This note sets out measurements from the supplement of paper PMC10567573.

± gives the standard deviation.

The nature of this data set: protein stability index of a GFP-peptide fusion (GPS, HEK-293T) (PSI 1-6); higher = more stable. The following applies: c terminus: a fixed tail appended.
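Further: 24-mer peptide tiles fused after GFP, lentivirally expressed, FACS-sorted into six equal bins by GFP/DsRed ratio, decoded by Illumina sequencing, PSI is the read-weighted mean bin number.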

As to CSPTAHDRECKLPPPSAPASEYCP [WDR88], the protein stability index amounted to 4.55 ± 0.088 (treatment: DMSO) and 4.584 ± 0.039 (treatment: MLN4924 1 uM, 8 h).
Turning to CSSARHPAWGHCFYRLYQDLETHR [SCNN1D], the protein stability index is 2.15 ± 0.17 (treatment: DMSO) and 2 ± 0.16 (treatment: MLN4924 1 uM, 8 h).
CTLEQDHFKKQTIYRFLKLHPRGK [FEM1C]: the protein stability index was determined as 2.43 ± 0.27 (treatment: DMSO) and 2.65 ± 0.37 (treatment: MLN4924 1 uM, 8 h).
On the same counts, the results for CYNGQDAVVNELIDYGANVNQPNN [ANKRD44] are 4.16 ± 0.088 and 4.24 ± 0.21.
Turning to DAEFLCVFCREGPTHQAHTVGFLD [TRIM15], the protein stability index (treatment: DMSO) worked out at 2.31 ± 0.27 and the protein stability index (treatment: MLN4924 1 uM, 8 h) was 2.34 ± 0.33.
For the sequence DAETPPRFTRTPVDQTGVSGGVAS [PTPRD], the protein stability index is, setting by setting: (treatment: DMSO) 5 ± 0.31; (treatment: MLN4924 1 uM, 8 h) 4.638 ± 0.016.
As to DAVFMKDGFFYFFHGTRQYKFDPK [MMP1], the protein stability index by setting is: (treatment: DMSO) 2.25 ± 0.33; (treatment: MLN4924 1 uM, 8 h) 2.1 ± 0.13.
As to DDALEDFKKVLDLNPGFQDATLSL [TTC32], the protein stability index is 3.73 ± 0.32 (treatment: DMSO) and 3.85 ± 0.32 (treatment: MLN4924 1 uM, 8 h).
On to DDFFRHESGEHFRSLLGYDPQILQ [RAD54B], for which the protein stability index was found to be 3.44 ± 0.22 (treatment: DMSO) and 3.29 ± 0.26 (treatment: MLN4924 1 uM, 8 h).
Consider DEIYRVLRYVNSTRAPQRAHEVLQ [FBXO28], for which the protein stability index reads like this: (treatment: DMSO) 2.43 ± 0.28; (treatment: MLN4924 1 uM, 8 h) 2.44 ± 0.33.
As to DELAHRCSSFMAPPVTDLGELRRR [CPOX], the protein stability index reads like this: (treatment: DMSO) 3.92 ± 0.11; (treatment: MLN4924 1 uM, 8 h) 4.04 ± 0.3.
With DEQLNEFHCLWDDSFPEGPERLHA [HDAC6], the protein stability index (treatment: DMSO) turned out to be 4.55 ± 0.3 and the protein stability index (treatment: MLN4924 1 uM, 8 h) was determined as 4.46 ± 0.35.
DFITLYQMASQSSASHYKLQVIKA [M1AP]: the protein stability index is, setting by setting: (treatment: DMSO) 2.63 ± 0.3; (treatment: MLN4924 1 uM, 8 h) 2.44 ± 0.43.
Take DGAGRTWQDSDTVKLLVDLELSYG [TOR1AIP2]: the protein stability index runs as follows: (treatment: DMSO) 2.37 ± 0.48; (treatment: MLN4924 1 uM, 8 h) 2.79 ± 0.43.
The like results for DGPCHKRRASICCTQLGSLSALKH [SCARA5] were, in that order, 3.79 ± 0.11 and 3.65 ± 0.076.
Turning to DHLENVSKLVESGIQFMDEPEMAV [TRIM55], the protein stability index reads like this: (treatment: DMSO) 4.54 ± 0.45; (treatment: MLN4924 1 uM, 8 h) 4.75 ± 0.41.
On the same counts, the results for DIKRGIPNYEFKLGKITFIRNSRP [UFD1] are 2.27 ± 0.17 and 2.34 ± 0.21.
In turn, DINLNSPNKGLLSDSMTDVPVDTG [TPD52L2] registered a protein stability index (treatment: DMSO) of 4.19 ± 0.2 and a protein stability index (treatment: MLN4924 1 uM, 8 h) of 4.51 ± 0.22.
Turning to DITEGDRKPDYTAYVAMIPQCIKE [ATF4], the protein stability index reads like this: (treatment: DMSO) 3.28 ± 0.27; (treatment: MLN4924 1 uM, 8 h) 3.38 ± 0.37.
DKALMIAMEYAPGGTLAEFIQKRC [NEK8]: the protein stability index came out at 2.39 ± 0.26 (treatment: DMSO) and 2.54 ± 0.17 (treatment: MLN4924 1 uM, 8 h).
DKDVRLLVACCLADIFRIYAPEAP [PDS5B] had a protein stability index (treatment: DMSO) of 3.08 ± 0.48 and a protein stability index (treatment: MLN4924 1 uM, 8 h) of 3.02 ± 0.08.
The like results for DKLYHPECFMCSDCGLNLKQRGYF [PDLIM4] were, in that order, 2.22 ± 0.18 and 2.23 ± 0.33.
DKRHVEQKIQFKRETASLKLLPHQ [PDZK1] came in with a protein stability index (treatment: DMSO) of 3.85 ± 0.31 and a protein stability index (treatment: MLN4924 1 uM, 8 h) of 3.8 ± 0.24.
The like results for DLCPPIGRRAATALLWLSCSIALL [GNAS] were, in that order, 2.59 ± 0.63 and 2.19 ± 0.28.
The like results for DNLRKVVPCYSKTQKLSKIETLRL [NEUROD6] were, in that order, 2.81 ± 0.17 and 2.8 ± 0.32.
For the sequence DNSLSSQNYISQKEDASEFQILKY [MIA2], the protein stability index turned out to be 3.94 ± 0.27 (treatment: DMSO) and 3.74 ± 0.6 (treatment: MLN4924 1 uM, 8 h).
In the case of DPNINPTIGASFMTKTVQYQNELH [RAB22A], the protein stability index (treatment: DMSO) amounted to 4.29 ± 0.31 and the protein stability index (treatment: MLN4924 1 uM, 8 h) was found to be 4.19 ± 0.23.
Consider DPPLSQDERTHRSDRPFKCNQCGK [ZNF8], for which the protein stability index (treatment: DMSO) came out at 5.01 ± 0.24 and the protein stability index (treatment: MLN4924 1 uM, 8 h) is 5.11 ± 0.14.
For the sequence DPTGASIALFTARLHHPHKSVQHV [PTPN9], the protein stability index (treatment: DMSO) was determined as 2.37 ± 0.29 and the protein stability index (treatment: MLN4924 1 uM, 8 h) was found to be 2.64 ± 0.23.
In the case of DQCKINKQIYNLIHLDPRTREGFT [FEM1B], the protein stability index by setting is: (treatment: DMSO) 2.2 ± 0.35; (treatment: MLN4924 1 uM, 8 h) 2.52 ± 0.38.
With DRDAEDQNRYLDGMVRAHGVRVSV [BET1L], the protein stability index amounted to 3.85 ± 0.22 (treatment: DMSO) and 3.87 ± 0.29 (treatment: MLN4924 1 uM, 8 h).
The like results for DRISTTFRLTTLLMSGCSSELKNR [PLK2] were, in that order, 2.19 ± 0.46 and 2.43 ± 0.18.
On the same counts, the results for DRNVVTIFSAPNYCYRCGNQAAIM [PPP2CA] are 2.7 ± 0.79 and 2.11 ± 0.23.
On the same counts, the results for DSCCPAGIFQAMCLLICAEMYQVS [RHOBTB3] are 3.07 ± 0.12 and 3.02 ± 0.31.
As for DSKHVVLPVDDDSDLNVVASFDRR [RBBP5], the protein stability index by setting is: (treatment: DMSO) 4.73 ± 0.39; (treatment: MLN4924 1 uM, 8 h) 5.21 ± 0.23.
The like results for DSQVSEEVKTRHSEKSQREDEEEE [CHGB] were, in that order, 5.75 ± 0.099 and 5.49 ± 0.21.
